Assays:
[1] = molecular target: T1, NTSR1 on A549 cells (Homo sapiens, UniProt P30989); experiment: Flow cytometry (FACS) binding of anti-NTSR1 antibodies on A549 cells; settings: for FACS binding (%, 1 μg/ml) / FACS binding (%, 10 μg/ml): A549 cells; for FACS binding (%, 1 μg/ml): antibody 1 μg/ml; for FACS binding (%, 10 μg/ml): antibody 10 μg/ml; for EC50: relative mean fluorescence intensity (MFI) on A549 cells
T1 construct: endogenous in cells; host or cells: A549 (NSCLC)
Description: A total of 1×10^6 cells were reacted with an anti-NTSR1 antibody in 100 μL of FACS buffer (PBS containing 0.5% BSA) for 60 minutes at 4° C. and washed two times to remove excess antibody. Secondary FITC (BD Pharmingen™) conjugated mouse anti-human IgG antibodies were incubated for an additional 60 minutes on ice. Cells were washed again and followed by an additional incubation with 1 ml PBS containing 0.5 mg/mL propidium iodide at 4° C. for 10 minutes. Data were collected on 10,000 living cells by FACS (Bio-Red S3e cell sorter). Fluorescence intensity from channel FL-1 was calculated with Flow Jo flow […] cytometry analysis software.

[2] = system: cyclic ECL2 peptide of NTSR1; experiment: NTSR1-binding affinity ELISA (alanine scanning variants); design: species or system human; settings: for effect on h7C3 affinity (in words): compared with parental h7C3
Sequence of cyclic ECL2 peptide of NTSR1 (P30989 206-234 limits assumed): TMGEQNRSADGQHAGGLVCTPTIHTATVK
Description: The NTSR1-binding capacity of different antibodies were measured by ELISA. Briefly, NeutrAvidin 96-well plates (Pierce Cat:15128) were coated with cyL2-Biotin peptides at a final concentration of 5 μg/ml at […]. On the following day, the coating solution was removed, and the plates were blocked with 5% (v/v) non-fat dry milk in phosphate buffer saline (PBS) for 1 hour. After washing with PBST, gradient concentrations of anti-NTSR1 antibodies were added in triplicate. After 1 hour of incubation, the plate was washed three times with PBST, followed by the addition of horseradish peroxidase (HRP)-conjugated goat anti-human IgG Fc antibody (100 μL) into each well for an additional hour at RT. Finally, 100 μL of tetramethylbenzidine (TMB) substrate was added into each well to produce color for visualization. After 2 minutes of incubation, 100 μL of 2M H2SO4 was used to stop the reaction. The absorbance of each well was read at 450 nm with a plate reader. Flow cytometry

T1 sequence (P30989 whole entry): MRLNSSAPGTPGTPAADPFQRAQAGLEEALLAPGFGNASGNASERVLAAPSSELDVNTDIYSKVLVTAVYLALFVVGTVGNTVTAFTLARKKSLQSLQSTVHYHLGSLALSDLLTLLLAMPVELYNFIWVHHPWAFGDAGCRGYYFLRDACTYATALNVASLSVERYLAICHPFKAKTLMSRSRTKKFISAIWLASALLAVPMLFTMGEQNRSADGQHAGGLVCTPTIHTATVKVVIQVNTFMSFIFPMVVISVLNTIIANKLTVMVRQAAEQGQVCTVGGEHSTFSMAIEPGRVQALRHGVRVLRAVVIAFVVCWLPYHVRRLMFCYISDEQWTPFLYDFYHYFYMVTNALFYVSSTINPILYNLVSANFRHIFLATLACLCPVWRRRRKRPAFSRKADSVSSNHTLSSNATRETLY

Molecule | FACS binding (%, 1 μg/ml) [1] [%] | FACS binding (%, 10 μg/ml) [1] [%] | EC50 [1] [µg/mL] | effect on h7C3 affinity (in words) [2] | further results
7C3: anti-human NTSR1 antibody with VH SEQ ID NO: 1 and VL SEQ ID NO: 2, full-length IgG with human IgG1 constant domains (antibody, V domains shown, human IgG1 constant domains; VH SEQUENCE; VL SEQUENCE) VH: QVQLQQPGSVLVRPGASVKLSCKASGYTFTSSWIHWAKQRPGQGLEWIGQIRPNSGNTYYNEKFKVKATLTVDTSSSTAYVDLSSLTSEDSAVYYCARYYYGFDYWGQGTLVTVSS VL: DVLMTQTPLSLPVSLGDQASISCRSSQSIVHSNGNTYLEWYLQKPGQSPKLLIYKVSNRFSGVPDRFSGSGSGTDFTLKISRVEAEDLGVYYCFQGSHLPWTFGGGTKLEIKR | 16.8 | 83.2 | 11.3 ± 2.8 | – | binding to A549 cells ([1]; 10 μg/ml, flow cytometry): strong binding
N54A: h7C3-2 variant, N54A in CDR H2 (antibody, V domains shown) VH: QVQLQQPGSVLVRPGASVKLSCKASGYTFTSSWIHWAKQRPGQGLEWIGQIRPASGNTYYNEKFKVKATLTVDTSSSTAYVDLSSLTSEDSAVYYCARYHYGFDYWGQGTLVTVSS VL: DVLMTQTPLSLPVSLGDQASISCRSSQSIVHSNGNTYLEWYLQKPGQSPKLLIYKVSNRFSGVPDRFSGSGSGTDFTLKISRVEAEDLGVYYCFQGAHLPWTFGGGTKLEIKR | – | – | – | – | binding affinity to peptide compared with h7C3-2 (in words) ([2]; h7C3-2 variants): higher binding affinity
L99A: h7C3-1 variant, L99A in CDR L3 (antibody, V domains shown) VH: QVQLQQPGSVLVRPGASVKLSCKASGYTFTSSWIHWAKQRPGQGLEWIGQIRPNSGNTYYNEKFKVKATLTVDTSSSTAYVDLSSLTSEDSAVYYCARYHYGFDYWGQGTLVTVSS VL: DVLMTQTPLSLPVSLGDQASISCRSSQSIVHSNGNTYLEWYLQKPGQSPKLLIYKVSNRFSGVPDRFSGSGSGTDFTLKISRVEAEDLGVYYCFQGSHAPWTFGGGTKLEIKR | – | – | – | – | decrease of h7C3-1 affinity ([2]; alanine scanning of CDR L3 of h7C3-1): 70%

More lines, main results first:

FACS binding (%, 1 μg/ml) [1] [%] | FACS binding (%, 10 μg/ml) [1] [%] | EC50 [1] [µg/mL] | effect on h7C3 affinity (in words) [2] | Molecule | further results
41 | 93.1 | 7.6 ± 1.7 | higher affinity | h7C3-1: 7C3 variant bearing Y100H mutation in CDR H3 (antibody, V domains shown) VH: QVQLQQPGSVLVRPGASVKLSCKASGYTFTSSWIHWAKQRPGQGLEWIGQIRPNSGNTYYNEKFKVKATLTVDTSSSTAYVDLSSLTSEDSAVYYCARYHYGFDYWGQGTLVTVSS VL: DVLMTQTPLSLPVSLGDQASISCRSSQSIVHSNGNTYLEWYLQKPGQSPKLLIYKVSNRFSGVPDRFSGSGSGTDFTLKISRVEAEDLGVYYCFQGSHLPWTFGGGTKLEIKR | –
– | – | – | no effect | Y105A: h7C3 variant, Y105A in CDR H3 (antibody, V domains shown) VH: QVQLQQPGSVLVRPGASVKLSCKASGYTFTSSWIHWAKQRPGQGLEWIGQIRPNSGNTYYNEKFKVKATLTVDTSSSTAYVDLSSLTSEDSAVYYCARYYYGFDAWGQGTLVTVSS VL: DVLMTQTPLSLPVSLGDQASISCRSSQSIVHSNGNTYLEWYLQKPGQSPKLLIYKVSNRFSGVPDRFSGSGSGTDFTLKISRVEAEDLGVYYCFQGSHLPWTFGGGTKLEIKR | –
– | – | – | no effect | D104A: h7C3 variant, D104A in CDR H3 (antibody, V domains shown) VH: QVQLQQPGSVLVRPGASVKLSCKASGYTFTSSWIHWAKQRPGQGLEWIGQIRPNSGNTYYNEKFKVKATLTVDTSSSTAYVDLSSLTSEDSAVYYCARYYYGFAYWGQGTLVTVSS VL: DVLMTQTPLSLPVSLGDQASISCRSSQSIVHSNGNTYLEWYLQKPGQSPKLLIYKVSNRFSGVPDRFSGSGSGTDFTLKISRVEAEDLGVYYCFQGSHLPWTFGGGTKLEIKR | –
